Where a chain is given by its changes, count along the chain named.
T1: mouse P2X7 (mouse, UniProt Q9Z1M0 1-595)
T1 construct: on transfected CHO or Hek293 cells, or endogenous on Yac-1 cells; also called mP2X7; mouse purinoceptor P2X7
T1 sequence: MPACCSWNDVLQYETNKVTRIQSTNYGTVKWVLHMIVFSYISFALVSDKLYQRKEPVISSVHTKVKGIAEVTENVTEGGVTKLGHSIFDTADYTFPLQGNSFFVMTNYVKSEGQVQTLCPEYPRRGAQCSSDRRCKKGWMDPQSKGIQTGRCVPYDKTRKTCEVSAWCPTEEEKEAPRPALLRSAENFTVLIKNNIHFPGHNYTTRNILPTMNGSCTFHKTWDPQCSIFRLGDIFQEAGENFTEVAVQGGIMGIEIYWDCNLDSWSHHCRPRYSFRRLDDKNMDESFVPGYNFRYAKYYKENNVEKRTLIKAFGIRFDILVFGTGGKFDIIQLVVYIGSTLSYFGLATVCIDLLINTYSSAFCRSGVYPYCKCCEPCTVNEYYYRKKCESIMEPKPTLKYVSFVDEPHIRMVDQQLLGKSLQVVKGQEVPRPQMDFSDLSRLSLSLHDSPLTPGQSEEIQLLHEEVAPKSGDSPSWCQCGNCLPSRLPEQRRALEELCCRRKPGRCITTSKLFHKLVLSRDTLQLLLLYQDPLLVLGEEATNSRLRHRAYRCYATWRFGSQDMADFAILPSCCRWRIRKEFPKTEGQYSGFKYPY

T2: human P2X7 (human, UniProt Q99572 1-595)
T2 construct: on transfected Hek293 cells; also called hP2X7
T2 sequence: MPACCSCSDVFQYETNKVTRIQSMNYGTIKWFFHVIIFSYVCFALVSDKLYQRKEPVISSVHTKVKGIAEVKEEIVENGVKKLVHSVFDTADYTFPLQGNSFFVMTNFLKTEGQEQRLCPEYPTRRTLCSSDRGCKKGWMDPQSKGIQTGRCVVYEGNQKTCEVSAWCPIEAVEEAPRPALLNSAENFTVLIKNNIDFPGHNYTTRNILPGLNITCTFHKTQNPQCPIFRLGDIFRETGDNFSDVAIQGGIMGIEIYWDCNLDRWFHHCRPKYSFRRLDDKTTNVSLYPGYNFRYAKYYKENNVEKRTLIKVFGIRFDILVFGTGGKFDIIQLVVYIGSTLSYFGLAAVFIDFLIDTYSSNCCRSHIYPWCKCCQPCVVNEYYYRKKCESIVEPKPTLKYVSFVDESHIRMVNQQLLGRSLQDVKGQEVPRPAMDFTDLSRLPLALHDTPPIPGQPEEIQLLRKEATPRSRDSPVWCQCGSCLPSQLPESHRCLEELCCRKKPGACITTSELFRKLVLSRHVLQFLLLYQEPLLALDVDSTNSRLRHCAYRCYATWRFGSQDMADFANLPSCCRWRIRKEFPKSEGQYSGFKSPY

T3: human P2X4 (human, UniProt Q99571 1-388)
T3 construct: whole, on cells; also called hP2X4
T3 sequence (looked up): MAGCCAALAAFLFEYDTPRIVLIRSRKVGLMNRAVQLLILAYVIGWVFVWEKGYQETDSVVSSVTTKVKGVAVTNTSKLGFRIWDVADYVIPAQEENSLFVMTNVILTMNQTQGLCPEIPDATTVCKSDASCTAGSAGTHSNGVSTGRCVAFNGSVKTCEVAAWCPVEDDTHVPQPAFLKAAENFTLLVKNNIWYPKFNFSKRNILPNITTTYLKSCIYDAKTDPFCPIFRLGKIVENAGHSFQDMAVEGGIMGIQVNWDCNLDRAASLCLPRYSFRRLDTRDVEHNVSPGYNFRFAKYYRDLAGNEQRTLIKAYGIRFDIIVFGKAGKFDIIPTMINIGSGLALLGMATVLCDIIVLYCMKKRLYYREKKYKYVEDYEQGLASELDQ

B1: P2X7PMP14F6 (VHH)
VHH: EVQLVESGGGLVQAGGPLRLSCAASGSFFRVNNMAWYRQAPGKQRELVADITRGDRTNYADSVNGRFTISRDNVRNTVYLQMNGLKPEDTAVYYCYARIELGVLEPRDYWGQGTQVTVSS
notes: family 5, 2; on phage or c-myc/His6-tagged in assays
B2: P2X7PMP14G4 (VHH)
VHH: B1 VHH with P17S, R19G, S27N, N33T, S62T, V92A
notes: as for B1
B3: P2X7PMP14F10 (VHH)
VHH: B1 VHH with P17S, S21L, Y94S, V103I
notes: as for B1
B4: P2X7PMP14G11 (VHH)
VHH: B1 VHH with Q13K, A14P, P17S, A40G, R98T
notes: family 5, 3; on phage or c-myc/His6-tagged in assays
B5: P2X7PMP13B5 (VHH)
VHH: EVQLVESGGGLVQAGDSLRLSCAASGRTFSSYAMGWFRQAPGKEREFVAAISLSGSMTYYADSMKGRFTISRDNAKNTVYLQMNSLKPEDTAVYYCAAEELGDGLGYLAYRYDYWGQGTQVTVSS
notes: family 19; on phage or c-myc/His6-tagged in assays
B6: P2X7PMP13G5 (VHH)
VHH: EVQLVESGGGLVQAGGSLRLSCAASDRTFGSSAMGWFRQAPGKDRDFVAAISWSGSSTHYADSVKGRFTISRDNAKNTMYLQMNSLKPADTAVYTCAASRRAYLPAKVGEYDFWGQGTQVTVSS
notes: family 18; on phage or c-myc/His6-tagged in assays
B7: P2X7PMP8C7 (VHH)
VHH: EMQLVESGGGLVQAGGSLRLSCAASGRTFSSLAMGWLRQAPGKEREFVSGISRGGTSTYYADSVKGRFTISRDNAKNTMYLQMNSLKPEDTAVYYCAGSPVLSIVLDTRGLEYWGQGTQVTVSS
notes: family 7; on phage or c-myc/His6-tagged in assays
B8: P2X7PMP8E7 (VHH)
VHH: B7 VHH with M2V
notes: as for B7
B9: P2X7PMP2A6 (VHH)
VHH: EVQLVESGGDVVQAGGSLRLSCLASGFTFDDYAIGWFRQAPGKEREGISCISSTGNVFYADSVKGRFTISSDKEKNTLYLQMNSLEPEDTAVYHCAAGHFTVDSGKVLLRTDISSWGQGTQVTVSS
notes: family 1; on phage or c-myc/His6-tagged in assays
B10: P2X7PMP7G5 (VHH)
VHH: EVQLVESGGGLVQSGGSLRLSCAGSGFSYYIIGWFRQAPGKEREEVSCIRVTDGSTYYTNSVKGRFTMSRDNAENTVYLQMNSLKPEDTAVYSCATECQRWAYPNRIGARGQGTQVTVSS
notes: family 12; on phage or c-myc/His6-tagged in assays
B11: P2X7PMP7D6 (VHH)
VHH: EVQLVESGGGLVQAGGSLRLSCAASGRTFGSSPVGWFRQAPGKERDFVATISWNGVDTHYLDSVKGRFTISRDNAKNTVHLQMHILKPEDTALYYCAASTSGSVYLPYRVYQYDSWGQGTQVTVSS
notes: family 8; on phage or c-myc/His6-tagged in assays
B12: P2X7PMP7B4 (VHH)
VHH: EVQLVESGGGLVQAGGSLRLSCAASGRNFGSYTMAWFRQAPGKGREFVSTINWSGGDTDYADSVKGRFTISRDNAKNTVYLQMDSLKPEDTAVYYCAAGLEYMSTIRYTYEYWGQGTQVTVSS
notes: family 10; on phage or c-myc/His6-tagged in assays
B13: P2X7PMP7A4 (VHH)
VHH: EVQLVESGGGLVQAGGSLRVSCAASARTGSYSMGWFRQAPGKEREFVSTISWNGADTVYADSVKGRFTISRDNAKDTVYLQMNSLKPEDTAVYYCAGSITSYVSTWQHDYEYWGQGTQVTVSS
notes: family 9; on phage or c-myc/His6-tagged in assays
B14: P2X7PMP13G9 (VHH)
VHH: EVQLVESGGGLVQAGGSLRLSCVASGRTFSILTMGWFRQAPGKEREFVAAISGIGAIHYADSVKGRFTLSRDNARNTVSLHMNSLKPEDTAVYYCAAKANYESPSRETSYAYWGQGTQVTVSS
notes: family 23; on phage or c-myc/His6-tagged in assays
B15: P2X7PMP4B4 (VHH)
VHH: EVQLVESGGGLVQAGGSLRLSCAASGRTVSDYGMGWFRQAPGKLREFVASINWSGIYTRYIDSVEGRFTISRDNTKNTLYLQMNNLKAEDTAVYYCAYFLGPNWYSNYGRPSSYDFYGQGTQVTVSS
notes: family 4; on phage or c-myc/His6-tagged in assays
B16: P2X7PMP19C2 (VHH)
VHH: EVQLVKSGGGLVQAGGSLRLSCAASPGTFSSFNMGWFRQTPGKEREFVAATSWSDISTYYADSVKGRFTISRDNAKNTVTLEMNSLKPEDTAVYYCAAGYYRGGYLGYRLTLEGSYDVWGQGTQVTVSS
notes: family 15; on phage or c-myc/His6-tagged in assays
B17: P2X7PMP19E3 (VHH)
VHH: B16 VHH with V2M, K6E
notes: as for B16
B18: P2X7PMP13B8 (VHH)
VHH: EVQLVESGGGLVQPGGSLRLSCAASGLTLTYYNIGWFRQAPGKEREGVSCIDWTDGTTFYADSVKGRFTISTDNAKNTVYLHLNSLEPEDTAVYYCAAGWGRVMTVQHMCADRSLFTSWGQGTQVTVSS
notes: family 13; on phage or c-myc/His6-tagged in assays
B19: P2X7PMP13G4 (VHH)
VHH: EVQLVESGGGLVQAGGSLRLSCAASDRTFGSSTMGWFRQPPGKNREFVATIAWSATTTHYADAVKGRFTVSRDNALNTVYLQMNSLKPEDTAVYYCAATLTWLGIHEYEYNTWGQGTQVTVSS
notes: family 21; on phage or c-myc/His6-tagged in assays

Key:
mouse P2X7 [1] = target: T1, mouse P2X7; experiment: phage ELISA, mP2X7-CHO vs control CHO cells
Description: (§1) Sub-confluent cells were rinsed with PBS and fixed using 4% paraformaldehyde in PBS for 10 minutes at RT. Fixed cells were washed three times with PBS, and blocked with 2% BSA in PBS for 2 hours. Following blocking, 10-fold diluted culture supernatant containing phage was added and incubated for 1 hour. Cell-bound phage was detected via mouse anti-M13-HRP-conjugate (GE Healthcare, Cat nr. E2886). Rat mAb Hano43 was used as positive control.

human P2X7 = target: T2, human P2X7; experiment: flow cytometry, Nanobody pre-incubated with anti-Myc-FITC
human P2X4 = target: T3, human P2X4; experiment: as above
mouse P2X7 [2] = target: T1, mouse P2X7; experiment: cell-based or functional assay
mouse P2X7 [3] = target: T1, mouse P2X7; experiment: phage ELISA on fixed mP2X7-CHO vs untransfected CHO cells;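 further: phage culture supernatant diluted 10-fold, applied for 1 h to paraformaldehyde-fixed, BSA-blocked cells in 96-well plates, with bound phage read via HRP-linked anti-M13 antibody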
Description: as §1

mouse P2X7 [4] = target: T1, mouse P2X7; experiment: flow cytometry, periplasmic extract pre-incubated with anti-myc-FITC, on mP2X7-Hek293 cells;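 further: periplasmic extract diluted 10-fold and premixed 45 min at 4 °C with FITC anti-myc antibody, giving pseudo-bivalent Nanobodies, before binding to the cells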
Description: Ten-fold diluted PE were pre-incubation with 0.5 μg anti-myc FITC-conjugated antibodies (AbD Serotec, cat no. MCA2200F) (creating pseudo-bivalent Nanobodies in order to increase binding strength) in 0.1 ml PBS/10% FCS for 45 minutes at 4° C. […] Alternatively, sequential staining of 10-fold diluted PE with anti-myc FITC-conjugated antibodies was done after incubation with the cells.

Row | Binder | absorption ratio (ELISA) (mouse P2X7 [1]) [ratio] | binding result (human P2X7) | binding result (human P2X4) | ATP IC50 by 2 uM NB (head prints 'mM'; ligand titration at fixed Nanobody, CD62L shedding, Yac-1 cells) (mouse P2X7 [2]) [mM] | IC50 (nM) against 20 uM NAD (CD62L shedding, Yac-1 cells) (mouse P2X7 [2]) [nM] | IC50 (nM) against 100 uM ATP (CD62L shedding, Yac-1 cells) (mouse P2X7 [2]) [nM] | Fold Cho P2X7/wt (phage ELISA) (mouse P2X7 [3]) [fold] | MFI FACS (pre-Myc incubation) (mouse P2X7 [4]) [MFI]
1 | B1 | 15 |  |  |  |  |  |  | 
2 | B2 | 34 |  |  |  |  |  |  | 
3 | B3 | 19 |  |  |  |  |  |  | 
4 | B4 | 30 |  |  |  |  |  |  | 
5 | B5 |  | no binding (tested: 147 nM) | no binding (tested: 147 nM) | 0.2 | 3650 | 436 | 28 | 
6 | B6 |  | no binding (tested: 147 nM) | no binding (tested: 147 nM) |  |  |  | 35 | 
7 | B7 |  | no binding (tested: 147 nM) | no binding (tested: 147 nM) |  | 4000 | 386 | 21 | 
8 | B8 |  | no binding (tested: 147 nM) | no binding (tested: 147 nM) |  | 4000 | 576 | 16 | 
9 | B9 |  | no binding (tested: 147 nM) | no binding (tested: 147 nM) |  |  |  | 8 | 
10 | B10 |  | no binding (tested: 147 nM) | no binding (tested: 147 nM) |  |  |  | 30 | 
11 | B11 |  | no binding (tested: 147 nM) | no binding (tested: 147 nM) |  |  |  | 18 | 
12 | B12 |  | no binding (tested: 147 nM) | no binding (tested: 147 nM) |  |  |  | 23 | 
13 | B13 |  | no binding (tested: 147 nM) | no binding (tested: 147 nM) |  |  |  | 32 | 
14 | B14 |  | no binding (tested: 147 nM) | no binding (tested: 147 nM) | 0.469 | 136 | 35 | 17 | 
15 | B15 |  | no binding (tested: 147 nM) | no binding (tested: 147 nM) | 0.047 |  |  | 19 | 
16 | B16 | 18 |  |  |  |  |  |  | 64
17 | B17 | 8 |  |  |  |  |  |  | 55
18 | B18 |  | no binding (tested: 147 nM) | no binding (tested: 147 nM) |  |  |  | 24 | 
19 | B19 |  | no binding (tested: 147 nM) | no binding (tested: 147 nM) |  |  |  | 56 | 
